Data taken from US20130225493A1 (HEPACORE, published 2013).

T1: FGFR4 extracellular domain, immobilized (R4-Fc) (UniProt P22455 22-369)
T1 construct: extracellular domain; also called FDCPR4-Fc
T1 sequence (looked up): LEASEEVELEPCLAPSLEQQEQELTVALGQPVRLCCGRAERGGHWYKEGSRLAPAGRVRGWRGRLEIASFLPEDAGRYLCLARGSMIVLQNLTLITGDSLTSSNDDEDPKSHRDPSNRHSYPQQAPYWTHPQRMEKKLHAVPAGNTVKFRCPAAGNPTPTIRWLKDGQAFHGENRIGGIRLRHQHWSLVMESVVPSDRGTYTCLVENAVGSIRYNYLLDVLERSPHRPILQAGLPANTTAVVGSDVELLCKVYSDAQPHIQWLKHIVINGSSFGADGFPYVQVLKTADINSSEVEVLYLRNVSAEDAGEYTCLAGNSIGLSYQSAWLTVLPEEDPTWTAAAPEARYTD

B1: FGF-18^Δ51 (ligand)
chain: MLRLYQLYSRTSGKHIQVLGRRISARGEDGDKYAQLLVETDTFGSQVRIKGKETEFYLCMNRKGKLVGKPDGTSKECVFIEKVLENNYTALMSAKYSGWYVGFTKKGRPRKGPKTRENQQDVHFMKRYPKGQPELQKPFKYTTVTKRSRRIRPTHPA
modifications: biotinylated in the immobilized receptor assays (sites not given)
notes: E. coli expressed; Numbering includes the signal peptide (1-27); also called v3
B2: FGF-18 (recombinant wild type, mature form without the signal peptide) (ligand)
chain: MENVDFRIHVENQTRARDDVSRKQLRLYQLYSRTSGKHIQVLGRRISARGEDGDKYAQLLVETDTFGSQVRIKGKETEFYLCMNRKGKLVGKPDGTSKECVFIEKVLENNYTALMSAKYSGWYVGFTKKGRPRKGPKTRENQQDVHFMKRYPKGQPELQKPFKYTTVTKRSRRIRPTHPA
modifications: biotinylated in the immobilized receptor assays (sites not given)
notes: Expressed in E. coli from pET9a and purified on heparin Sepharose; also called FGF-18 wild type; F18 w.t
B3: FGF-18^Δ37 (ligand)
chain: MENQTRARDDVSRKQLRLYQLYSRTSGKHIQVLGRRISARGEDGDKYAQLLVETDTFGSQVRIKGKETEFYLCMNRKGKLVGKPDGTSKECVFIEKVLENNYTALMSAKYSGWYVGFTKKGRPRKGPKTRENQQDVHFMKRYPKGQPELQKPFKYTTVTKRSRRIRPTHPA
modifications: biotinylated in the immobilized receptor assays (sites not given)
notes: E. coli expressed; Numbering includes the signal peptide (1-27); also called v1
B4: FGF-18^Δ45 (ligand)
chain: MDVSRKQLRLYQLYSRTSGKHIQVLGRRISARGEDGDKYAQLLVETDTFGSQVRIKGKETEFYLCMNRKGKLVGKPDGTSKECVFIEKVLENNYTALMSAKYSGWYVGFTKKGRPRKGPKTRENQQDVHFMKRYPKGQPELQKPFKYTTVTKRSRRIRPTHPA
modifications: biotinylated in the immobilized receptor assays (sites not given)
notes: E. coli expressed; Numbering includes the signal peptide (1-27); also called v2
B5: FGF-18^Δ31 (ligand)
chain: MDFRIHVENQTRARDDVSRKQLRLYQLYSRTSGKHIQVLGRRISARGEDGDKYAQLLVETDTFGSQVRIKGKETEFYLCMNRKGKLVGKPDGTSKECVFIEKVLENNYTALMSAKYSGWYVGFTKKGRPRKGPKTRENQQDVHFMKRYPKGQPELQKPFKYTTVTKRSRRIRPTHPA
modifications: biotinylation not stated for the functional ELISA of Table 4
notes: E. coli expressed
B6: FGF-18^Δ33 (ligand)
chain: MRIHVENQTRARDDVSRKQLRLYQLYSRTSGKHIQVLGRRISARGEDGDKYAQLLVETDTFGSQVRIKGKETEFYLCMNRKGKLVGKPDGTSKECVFIEKVLENNYTALMSAKYSGWYVGFTKKGRPRKGPKTRENQQDVHFMKRYPKGQPELQKPFKYTTVTKRSRRIRPTHPA
modifications: biotinylation not stated for the functional ELISA of Table 4
notes: E. coli expressed; Numbering includes the signal peptide (1-27)

Target: T1, FGFR4 extracellular domain, immobilized …
Assay: ELISA: biotinylated ligand on immobilized FGFR-Fc, HRP-streptavidin
Procedure: FIGS. 2A-2D. […] (2A) FGFR1; (2B) FGFR2; (2C) FGFR3 and (2D) FGFR4. Biotinylated FGF-18 (♦) and three FGF-18 variants (Δ37, v1,; Δ45, v2, (▪); and Δ51, v3, (▪)) were added at increasing concentrations to FGFR1-4 anchored to a MaxiSorp ELISA plate. Bound ligands were detected by HRP-streptavidin. Data are the average of duplicate wells.
FGF-18 and the N-terminal truncated variants (FGF-18^Δ37, FGF-18^Δ45 and FGF-18^Δ51) were tested for receptor specificity by binding to immobilized extracellular domain of FGFR1-4 (FIG. 2). Biotinylated FGF's were added at increasing concentrations to FGFR1-4 anchored to a MaxiSorp ELISA plate. Bound ligands were detected by HRP-streptavidin. […] The variants of the present invention are thus shown to be specific for FGFR3-4.

Row | Binder | EC50 [ng/mL]
1 | B1 | 9.93
2 | B2 | 9.23
3 | B3 | 5.86
4 | B4 | 8.1

Target: T1, FGFR4 extracellular domain, immobilized …
Assay: functional ELISA on immobilized FGFR

Row | Binder | EC50 [ng/mL]
5 | B1 | 10.6
6 | B2 | 10.2
7 | B5 | 9.36
8 | B6 | 7.11
9 | B3 | 8.28
